According to article PMC9891163 (Drug Delivery, 2023):

Test: Aqueous dispersibility of the peptide-lipid conjugate
Assay type: physicochemical

Substance: (Dipalmitoyl)lysine-KSS-(SG)5-ApoEdp [ApoEdp-SG-lipid]
- Aqueous dispersibility: excellent aqueous dispersibility
